For 12 substances, stoichiometry N results are on record in paper PMC11963670.

Usually stoichiometry N stands for a count of units in the complex or per binding partner.

Assay [1] addresses RHDV GI.2 P domain mutant N387A, MBP fusion (rabbit hemorrhagic disease virus GI.2 (isolate N-11)). The experiment in a line: native gel or EMSA; PAGE under denaturing or native conditions of the MBP-P domain point mutants; monomer and homodimer bands; BSA as negative control.
In assay [2] the target is RHDV GI.2 P domain loop-swap mutant L1´L4´L5´ (loops 1, 4 and 5 of GI.1b), His-tagged MBP fusion (rabbit hemorrhagic disease virus GI.2 (isolate N-11)). Description: native gel or EMSA; nondenaturing PAGE of the MBP-P domain fusions, western blot with an anti-His tag monoclonal antibody; monomer band (calculated 85 kDa) and a slower band of the dimer.
Assay [3] concerns the target RHDV GI.2 P domain loop-swap mutant L1´ (loop 1 of GI.1b), His-tagged MBP fusion (rabbit hemorrhagic disease virus GI.2 (isolate N-11)). The description is as above.
In assay [4] the target is RHDV GI.2 P domain loop-swap mutant L5´ (loop 5 of GI.1b), His-tagged MBP fusion (rabbit hemorrhagic disease virus GI.2 (isolate N-11)). The description is as above.
Assay [5] concerns the target RHDV GI.2 wild-type P domain of VP60 (isolate N-11), His-tagged MBP fusion (rabbit hemorrhagic disease virus GI.2 (isolate N-11)). The assay is described as above.
Assay [6] addresses RHDV GI.2 P domain loop-swap mutant L4´L5´ (loops 4 and 5 of GI.1b), His-tagged MBP fusion (rabbit hemorrhagic disease virus GI.2 (isolate N-11)). Described as above.
Assay [7] concerns the target RHDV GI.1b P domain of VP60, MBP fusion (rabbit hemorrhagic disease virus GI.1b (isolate RHDV-Ast89)). The description is as above.
The target of assay [8] is RHDV GI.2 P domain loop-swap mutant L2´ (loop 2 of GI.1b), His-tagged MBP fusion (rabbit hemorrhagic disease virus GI.2 (isolate N-11)). The description is as above.
Assay [9] concerns the target RHDV GI.2 P domain loop-swap mutant L3´ (loop 3 of GI.1b), His-tagged MBP fusion (rabbit hemorrhagic disease virus GI.2 (isolate N-11)). The description is as above.
For assay [10], the target named is RHDV GI.2 P domain mutant N387D, MBP fusion (rabbit hemorrhagic disease virus GI.2 (isolate N-11)). The experiment in a line: native gel or EMSA; PAGE under denaturing or native conditions of the MBP-P domain point mutants; monomer and homodimer bands; BSA as negative control. Background: Mobility shift assays separate free from complexed probe on a gel.
Assay [11] has as its target RHDV GI.2 P domain loop-swap mutant L4´ (loop 4 of GI.1b), His-tagged MBP fusion (rabbit hemorrhagic disease virus GI.2 (isolate N-11)). Description: native gel or EMSA; nondenaturing PAGE of the MBP-P domain fusions, western blot with an anti-His tag monoclonal antibody; monomer band (calculated 85 kDa) and a slower band of the dimer.
Assay [12] addresses RHDV GI.2 P domain loop-swap mutant L1´L4´ (loops 1 and 4 of GI.1b), His-tagged MBP fusion (rabbit hemorrhagic disease virus GI.2 (isolate N-11)). The description is as above.

In assay [1], “RHDV GI.2 P domain mutant N387A, MBP fusion (domain or fragment)” showed a stoichiometry N of 2.

In the case of “RHDV GI.2 P domain loop-swap mutant L1´L4´L5´ (loops 1, 4 and 5 of GI.1b), His-tagged MBP fusion (domain or fragment)”, the stoichiometry N in assay [2] is 2.

For the substance “RHDV GI.2 P domain loop-swap mutant L1´ (loop 1 of GI.1b), His-tagged MBP fusion (domain or fragment)”, in assay [3], the stoichiometry N is 2.

For “RHDV GI.2 P domain loop-swap mutant L5´ (loop 5 of GI.1b), His-tagged MBP fusion (domain or fragment)”, the stoichiometry N in assay [4] was 2.

Consider “RHDV GI.2 wild-type P domain of VP60 (isolate N-11), His-tagged MBP fusion (domain or fragment)”, for which the stoichiometry N in assay [5] is 2.

Turning to “RHDV GI.2 P domain loop-swap mutant L4´L5´ (loops 4 and 5 of GI.1b), His-tagged MBP fusion (domain or fragment)”, the stoichiometry N in assay [6] was 2.

For the substance “RHDV GI.1b P domain of VP60, MBP fusion (domain or fragment)”, in assay [7], the stoichiometry N was 2.

Consider “RHDV GI.2 P domain loop-swap mutant L2´ (loop 2 of GI.1b), His-tagged MBP fusion (domain or fragment)”, for which the stoichiometry N in assay [8] is 2.

Regarding “RHDV GI.2 P domain loop-swap mutant L3´ (loop 3 of GI.1b), His-tagged MBP fusion (domain or fragment)”, the stoichiometry N in [9] was 2.

In the case of “RHDV GI.2 P domain mutant N387D, MBP fusion (domain or fragment)”, the stoichiometry N in assay [10] was determined as 2.

On to “RHDV GI.2 P domain loop-swap mutant L4´ (loop 4 of GI.1b), His-tagged MBP fusion (domain or fragment)”, for which the stoichiometry N in assay [11] is 2.

In the case of “RHDV GI.2 P domain loop-swap mutant L1´L4´ (loops 1 and 4 of GI.1b), His-tagged MBP fusion (domain or fragment)”, in [12], the stoichiometry N is 2.
